Among the data in paper PMC11984392, “EphA2-targeted alpha-particle theranostics for enhancing PDAC treatment” (Theranostics, 2025) are Kd, koff and kon values, retold here.

What all share (conditions): both partners purified
Assay [1] concerns the target T1, His-tagged human EphA2 (human, UniProt P29317 24-537).
T1 construct: human EphA2 (Ephrin receptor A2), recombinant, 56.9 kDa; also called recombinant human EphA2 protein; hEphA2; source: bought: R&D systems, catalog # 3035-A2
Briefly: SPR; Biacore T200, CM5 chip, 25 °C; His-tagged human EphA2 captured on immobilised anti-His antibody (FC2); AJ210 as analyte, 0.625-80 nM, in HBS-P + 0.1% DMSO, 50 μL/min, contact 120 s, dissociation 600 s; 1:1 kinetics model. A general note: Surface plasmon resonance follows binding to a sensor surface in real time, without labels.
T1 sequence (P29317 24-537): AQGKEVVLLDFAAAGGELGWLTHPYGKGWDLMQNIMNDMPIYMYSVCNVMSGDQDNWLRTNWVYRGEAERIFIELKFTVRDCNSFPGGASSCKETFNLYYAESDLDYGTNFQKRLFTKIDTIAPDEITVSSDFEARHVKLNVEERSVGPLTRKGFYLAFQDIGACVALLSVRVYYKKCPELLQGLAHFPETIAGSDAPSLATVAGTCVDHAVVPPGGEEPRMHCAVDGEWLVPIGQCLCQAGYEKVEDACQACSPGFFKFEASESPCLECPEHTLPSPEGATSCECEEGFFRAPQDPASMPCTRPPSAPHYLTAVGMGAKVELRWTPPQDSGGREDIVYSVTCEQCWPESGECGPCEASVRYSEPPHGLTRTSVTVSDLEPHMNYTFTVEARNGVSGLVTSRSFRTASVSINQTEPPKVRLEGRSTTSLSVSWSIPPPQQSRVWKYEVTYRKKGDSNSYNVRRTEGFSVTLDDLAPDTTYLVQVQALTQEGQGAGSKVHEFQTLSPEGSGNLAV

Assay [2] deals with T2, His-tagged human EphA2 (human, UniProt P29317 24-537).
T2 construct: Human EphA2 (Ephrin receptor A2), recombinant, His-tagged, printed as 56.9 kDa; also called hEphA2; recombinant human EphA2; source: bought: R&D systems, catalog # 3035-A2
Briefly: SPR; Biacore T200, CM5 chip, 25 °C; His-tagged EphA2 captured (~750 RU) on amine-coupled anti-His antibody; peptide as analyte in HBS-P (10 mM HEPES pH 7.4, 150 mM NaCl, 0.05% P20) + 0.1% DMSO, 50 μL/min, contact 120 s, dissociation 600 s; 1:1 kinetics model.
T2 sequence (P29317 24-537): as above

The target of assay [3] is T3, His-tagged mouse EphA2 (mouse, UniProt Q03145 26-538).
T3 construct: Mouse EphA2, recombinant, His-tagged, printed as 58 kDa; also called mEphA2; recombinant mouse EphA2; source: bought: SinoBiological, cat.# 50586-M08H
The description is as above.

*1 amine or outer side, *2 acyl side, *3 side chain or, on linkers, in order; H or OH if unused. Bridges are numbered along the chain shown (N, C = ends). Primed or numbered codes have the meaning given here. [ ]: non-standard residue; d: D form. The star is where a group is joined. DOTA = O=C(O)CN1CCN(CC(=O)O)CCN(CC(=O)*)CCN(CC(=O)O)CC1; TATA = O=C(CC[*:1])N1CN(C(=O)CC[*:2])CN(C(=O)CC[*:3])C1; NOTA = O=C(O)CN1CCN(CC(=O)O)CCN(CC(=O)*)CC1; Hyp = O=C(O)[C@@H]1C[C@@H](O)CN1; hArg = N=C(N)NCCCC[C@H](N)C(=O)O; PEG2′ = not defined here; Sar = CNCC(=O)O

T3 sequence (Q03145 26-538): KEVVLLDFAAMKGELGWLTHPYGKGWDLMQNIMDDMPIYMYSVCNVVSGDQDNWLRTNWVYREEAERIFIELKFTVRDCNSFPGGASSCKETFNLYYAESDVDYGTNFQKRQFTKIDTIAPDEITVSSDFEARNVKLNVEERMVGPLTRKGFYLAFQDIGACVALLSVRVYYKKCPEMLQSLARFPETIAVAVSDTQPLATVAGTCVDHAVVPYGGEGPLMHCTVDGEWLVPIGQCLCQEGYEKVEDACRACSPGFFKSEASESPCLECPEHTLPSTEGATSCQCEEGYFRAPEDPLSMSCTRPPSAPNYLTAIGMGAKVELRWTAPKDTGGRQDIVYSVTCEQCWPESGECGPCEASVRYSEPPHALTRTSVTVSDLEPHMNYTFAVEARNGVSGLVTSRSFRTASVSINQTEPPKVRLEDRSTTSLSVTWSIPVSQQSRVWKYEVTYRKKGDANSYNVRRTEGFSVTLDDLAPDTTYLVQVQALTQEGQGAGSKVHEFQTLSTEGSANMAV

B1: AJ210 (peptide)
chain: {DOTA}-A[hArg]DC[Hyp]LVNPLCLHP[dD]W[hArg]C-NH2
modifications: linker 4-11-18 via TATA
SMILES: CC(C)C[C@@H]1NC(=O)[C@@H]2CSCCC(=O)N3CN(CN(C3)C(=O)CCSC[C@H](NC(=O)[C@H](CC(=O)O)NC(=O)[C@H](CCCCNC(=N)N)NC(=O)[C@H](C)NC(=O)CN3CCN(CC(=O)O)CCN(CC(=O)O)CCN(CC(=O)O)CC3)C(=O)N3C[C@H](O)C[C@H]3C(=O)N[C@@H](CC(C)C)C(=O)N[C@@H](C(C)C)C(=O)N[C@@H](CC(N)=O)C(=O)N3CCC[C@H]3C(=O)N[C@@H](CC(C)C)C(=O)N2)C(=O)CCSC[C@@H](C(N)=O)NC(=O)[C@H](CCCCNC(=N)N)NC(=O)[C@H](Cc2c[nH]c3ccccc23)NC(=O)[C@@H](CC(=O)O)NC(=O)[C@@H]2CCCN2C(=O)[C@H](Cc2c[nH]cn2)NC1=O
With B1, in assay [1], the Kd worked out at 2.4 nM, the koff came to 0.00136 s⁻¹ and the kon turned out to be 561000 M⁻¹ s⁻¹.

B2: AJ201 (peptide)
peptide: {NOTA-PEG2′}-GR[Sar][Sar][Sar]GA[hArg]DC[Hyp]LVNPLCLHP[dD]W[hArg]C-NH2
modifications: linker 10-17-24 via TATA; not fully specified; also: hydroxyproline, place not given here
notes: also called non-radioactive AJ201; bicyclic peptide AJ201; source: synthetic peptide, synthesized by CPC Scientific Inc., >90% purity
B2: the Kd in assay [2] stood at 0.2 nM; in assay [3], 0.6 nM.

As a reminder, the Kd is the equilibrium constant for the complex coming apart. As usually defined, the koff is the first-order rate constant of dissociation. As usually defined, the kon is the rate constant with which the complex forms.
